In the supplement of paper PMC9170038:

Tested on: MS2 coat protein
Experiment: apparent KD of MS2 coat protein; higher = weaker reporter binding
Details: Eterna round: R107
Method in brief: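 For every design, apparent KD is the median of normalised binding-curve fits from its clusters. The RNA switches were transcribed on-chip from Illumina sequencing clusters and titrated with SNAP-549-labelled MS2 coat protein (twofold steps, 0.7 or 1.5 nM to 3 µM; 0.8–1.5 h to 10–20 min per step). Titrations used 100 mM Tris-HCl pH 7.5, 80 mM KCl, 4 mM MgCl2, without or with constant ligand.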

[1] = input ligand: theophylline 20 uM
[2] = input ligand: theophylline 2 mM
[3] = input ligand: tryptophan 2.4 mM

Sequence	apparent KD of MS2 coat protein (input ligand: arginine 13.2 mM)	apparent KD of MS2 coat protein (input ligand: none)	apparent KD of MS2 coat protein [1]	apparent KD of MS2 coat protein [2]	apparent KD of MS2 coat protein [3]
GCUGUUGCGGUGAGGUAUCCGGCUGUGGAAGGAGCGCGGAAUGCCGCAGGUAGGUCGCCACAUGAGGAUCACCCAUGUCGAUAUA [Atzalama]	25.6 nM	27.2 nM	45.2 nM	35 nM	21.2 nM
GGACCAUGGCGCGAUACCAGCUUGAGUGUACUGGCCAGGUACAUGAGGAUCACCCAUGUAAGCCCUUGGCAGCGCGCCAUGGUCC [#1 Exclusion - Theophylline B Attempt #24 (HarryS)]	10.4 nM	10.3 nM	16.1 nM	36.5 nM	10.7 nM
GGACUAACUGGAAGGAGCGACGCGCAGAAACUGCAAUUUCCUCCACACGAGGAUCACCCGUGUCAGGUAGGUCGCCAGUUAGUCG [ArgBX 29]	19.1 nM	16.7 nM	24.7 nM	21.1 nM	18.6 nM
GGAUAGGACACGGCCGCCACUACCUAGGAUACUAGCAACAUUUGGGUAUAUGAGGAUCACCCAUAUAGGACCGGGUGUCCUAUCG	48.5 nM	75.8 nM	88 nM	95.2 nM	102 nM
GGAUAUGGUGAAAGAGAGAAGAGAGAUGAUACCAGUAAGAGAAGAUGCCCUUGGCAGCAUAGAGACAUGAGGAUCACCCAUGUAA [solution]	12 nM	22.9 nM	25.2 nM	24.3 nM	15.6 nM
GGCACAUAGUCGGCCGCCACUAGAAUAAGAAGGGAAAACAUGAGGAUCACCCAUGUAAAAGGGACUAGGACCGGGACUAUGUGCC [Shrew]	14.5 nM		18.2 nM	17 nM	
GGCACCGGGCGAAGGAGCGUGAAGACAUGAGGAUCACCCAUGUAGAGGCCCGGACAGGGUUCGCAGGUAGGUCGCGCGCGGUGCC [#1 Same State - Arginine B Attempt #8 (HarryS)]	21.2 nM	14.5 nM	22.3 nM	16.8 nM	16.9 nM
GGCAGUCAUAGGAGGGCAAAUAUACUCGAAGGAGCGUCAUAGUAGGCAGGUAGGUCGCGAGACAUGAGGAUCACCCAUGUAGAGA [wwzmullin]	20.2 nM	66.9 nM	106 nM	125 nM	90.5 nM
GGCCCGGACUUGGAAUGGGUGUUUCCCUCACGAGGACCGGUACGGCCGCCACUCGAAGACAUGAGGAUCACCCAUGUAGUCGACA [Qudirate]	31.2 nM		78 nM	138 nM	
GGCCCGGACUUGGAAUGGGUGUUUCCUUCACGAGGACCGGUACGGCCGCCACUCGAAGACAUGAGGAUCACCCAUGUAGUCGACC [Soleti]	20.3 nM	21.7 nM	100 nM	41.1 nM	18.2 nM
GGGACAUGAGGAUCACCCAUGUACCGGUCCCGAGGACCGGUACGGCCGCCACUCGAUGACCUCAUAGUCUGCUGGAGCAGCAGAC [Usesedarin]		54.6 nM	108 nM	84.3 nM	330 nM
GGGCAAGAGGGAAGGAGCGUCGGCUGGGUAACAUGAGGAUCACCCAUGUAGCACAUGGUGUGGCAGGUAGGUCGCCCUCUGCCCU [SS-ArgB9]	71.1 nM	102 nM	153 nM	133 nM	103 nM
GGGCCCGGGCGCGAGCCCGGGCCCAUUGAUACCAGUGAAAAUAUACGCCCUUGGCAGCGAAUCCUAACAUGAGGAUCACCCAUGU [5.A]	37.7 nM	37.2 nM	65.7 nM	70.9 nM	33.4 nM
GGGCCCGGGCGCGAGCCCGGGCCCAUUGAUACCAGUGAGAGAGAGCGCCCUUGGCAGCGAAUCCUAACAUGAGGAUCACCCAUGU [5.N]	49.5 nM	51.6 nM	84.6 nM	84.3 nM	41.6 nM
GGGCCCGGGCGCGAGCCCGGGCCCAUUGAUACCAGUGAUAUAUAGCGCCCUUGGCAGCGAAUCCUAACAUGAGGAUCACCCAUGU [5.I]	23.7 nM	38.8 nM	65.2 nM	53.2 nM	42.7 nM
GGGCCUACCUGAAGGAGCGACAUGAGGAUCACCCAUGUCUCCCGUUAUGGGAGUUCUUUAGGUCAGGUAGGUCGCAGGUAGGGCC [#1 Exclusion - Arginine B Attempt #4 (Inspired by Omei)]	15.3 nM	12.6 nM	17 nM	14.1 nM	14.1 nM
GGGCGACAUGAGGAUCACCCAUGUGUCGAUACCAGUAUGAAUUUCUACCCUUGGCAGCGACGACACGGUUAUUUGUGCACUUCGA [theeternabot_sameState_MS2_Theo_A_5]	77.5 nM		114 nM		95.6 nM
GGGCGCUAUCCCGCGAGGGAUAGCGUUCGACGAGGACCGGUACGGCCGCCACUCGAACGAGUGGUGACAUGAGGAUCACCCAUGU [Naa]	28.7 nM	53 nM	56.7 nM	59.4 nM	49.7 nM
GGGCGCUAUCCCGCGAGGGAUAGCGUUCUUCGAGGACCGGUACGGCCGCCACUCGAACGAGUGGUGACAUGAGGAUCACCCAUGU [Paa]	35.6 nM	63.6 nM	75 nM	81.1 nM	58.7 nM
